In data set [1] the target is T1, AtAbf43C (Acetivibrio thermocellus, UniProt A3DHB3, D187A).
T1 construct: gene Cthe_2138; residues 21-511 of 580, no signal peptide or dockerin I domain, C-terminal LEHHHHHH tag, pET28b(+), E. coli BL21(DE3) Rosetta2
Put plainly: pNP release at […] nm, activity relative to wild type. The class given is biochemical. The settings on record: 5 mM substrate, pH 5.5 sodium acetate, 65 °C, 10 min; catalytic residue.

In data set [2] the target is T2, AtAbf43C (Acetivibrio thermocellus, UniProt A3DHB3, D302A).
T2 construct: gene Cthe_2138; residues 21-511 of 580, no signal peptide or dockerin I domain, C-terminal LEHHHHHH tag, pET28b(+), E. coli BL21(DE3) Rosetta2
The description is as above. The class given is biochemical. As to conditions: 5 mM substrate, pH 5.5 sodium acetate, 65 °C, 10 min; catalytic residue.

Data set [3] addresses T3, AtAbf43C (Acetivibrio thermocellus, UniProt A3DHB3, E363A).
T3 construct: gene Cthe_2138; residues 21-511 of 580, no signal peptide or dockerin I domain, C-terminal LEHHHHHH tag, pET28b(+), E. coli BL21(DE3) Rosetta2
The data set is described as above. The class given is biochemical. The settings on record: 5 mM substrate, pH 5.5 sodium acetate, 65 °C, 10 min; catalytic residue.

Substrate in the data set “purified protein”: O=[N+]([O-])c1ccc(O[C@@H]2O[C@@H](CO)[C@H](O)[C@H]2O)cc1
Description: purified protein. It is filed as biochemical, Acetivibrio thermocellus. As to conditions: pH 5.5, 100 mM sodium acetate, 65 °C, 2 min, 0.9-36 mM substrate, full saturation not achieved.

T2 sequence (A3DHB3 entry or part of it D302A): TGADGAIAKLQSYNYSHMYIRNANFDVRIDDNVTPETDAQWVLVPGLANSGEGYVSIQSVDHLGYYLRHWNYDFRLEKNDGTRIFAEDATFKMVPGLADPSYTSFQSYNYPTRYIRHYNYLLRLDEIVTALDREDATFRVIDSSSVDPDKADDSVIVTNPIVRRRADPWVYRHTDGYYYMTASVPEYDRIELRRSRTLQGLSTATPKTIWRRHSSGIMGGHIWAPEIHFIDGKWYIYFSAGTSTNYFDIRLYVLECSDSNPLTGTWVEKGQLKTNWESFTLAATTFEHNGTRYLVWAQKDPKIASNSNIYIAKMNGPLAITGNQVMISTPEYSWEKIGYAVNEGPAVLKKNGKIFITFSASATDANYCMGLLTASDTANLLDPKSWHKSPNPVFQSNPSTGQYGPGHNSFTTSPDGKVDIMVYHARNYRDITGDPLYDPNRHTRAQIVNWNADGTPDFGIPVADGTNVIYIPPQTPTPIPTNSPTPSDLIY
T3 sequence (A3DHB3 entry or part of it E363A): as the sequence (A3DHB3 entry or part of it D302A) above, with A282D, E343A counted along it
T1 sequence (A3DHB3 entry or part of it D187A): as the sequence (A3DHB3 entry or part of it D302A) above, with D167A, A282D counted along it

In the case of `O=[N+]([O-])c1ccc(O[C@@H]2O[C@@H](CO)[C@H](O)[C@H]2O)cc1` [pNPAra, para-nitrophenol-α-L-arabinofuranoside], the “% activity relative to wildtype” value at AtAbf43C [1], at AtAbf43C [2] and at AtAbf43C [3] was “activity on pNPAra was completely eliminated in any of the versions” in each case.

B1: AtAbf43C_GH43 (Acetivibrio thermocellus ATCC 27405) (protein)
chain: DPDKADDSVIVTNPIVRRRADPWVYRHTDGYYYMTASVPEYDRIELRRSRTLQGLSTATPKTIWRRHSSGIMGGHIWAPEIHFIDGKWYIYFSAGTSTNYFDIRLYVLECSDSNPLTGTWVEKGQLKTNWESFTLDATTFEHNGTRYLVWAQKDPKIASNSNIYIAKMNGPLAITGNQVMISTPEYSWEKIGYAVNEGPAVLKKNGKIFITFSASATDANYCMGLLTASDTANLLDPKSWHKSPNPVFQSNPSTGQYGPGHNSFTTSPDGKVDIMVYHARNYRDITGDPLYDPNRHTRAQIVNWNADGTPDFGIPVADGTNVIYIPPQ
notes: isolated GH43 catalytic domain, residues 167-494, no CBM42, cloned in pET28b(+) and IMAC-purified, E. coli BL21(DE3) Rosetta2
Broadly, the Km is the concentration of substrate that gives half-maximal velocity. As usually defined, the kcat is the maximal rate divided by the concentration of active sites. As usually defined, the kcat/Km is the turnover number divided by the Michaelis constant. Turning to B1, in the data set “purified protein”, the Km is 59.6 ± 12.1 mM, the catalytic constant (kcat) was 238 ± 33.4 s⁻¹ and the kcat/Km is 4000 ± 1000 M⁻¹ s⁻¹.

B2: AtAbf43C (Acetivibrio thermocellus ATCC 27405) (protein)
chain: TGADGAIAKLQSYNYSHMYIRNANFDVRIDDNVTPETDAQWVLVPGLANSGEGYVSIQSVDHLGYYLRHWNYDFRLEKNDGTRIFAEDATFKMVPGLADPSYTSFQSYNYPTRYIRHYNYLLRLDEIVTALDREDATFRVIDSSSVDPDKADDSVIVTNPIVRRRADPWVYRHTDGYYYMTASVPEYDRIELRRSRTLQGLSTATPKTIWRRHSSGIMGGHIWAPEIHFIDGKWYIYFSAGTSTNYFDIRLYVLECSDSNPLTGTWVEKGQLKTNWESFTLDATTFEHNGTRYLVWAQKDPKIASNSNIYIAKMNGPLAITGNQVMISTPEYSWEKIGYAVNEGPAVLKKNGKIFITFSASATDANYCMGLLTASDTANLLDPKSWHKSPNPVFQSNPSTGQYGPGHNSFTTSPDGKVDIMVYHARNYRDITGDPLYDPNRHTRAQIVNWNADGTPDFGIPVADGTNVIYIPPQTPTPIPTNSPTPSDLIY
notes: residues 21-511 of 580, no signal peptide or dockerin I domain, C-terminal LEHHHHHH tag, pET28b(+), E. coli BL21(DE3) Rosetta2
Consider B2, for which, in the data set “purified protein”, the Michaelis-Menten constant (Km) amounted to 22.7 ± 4.1 mM, the turnover number (kcat) was found to be 269 ± 25.5 s⁻¹ and the kcat/Km was 11900 ± 2400 M⁻¹ s⁻¹.
